Here are results for 2 molecules from patent US20240374585A1, “EPITHELIAL SODIUM CHANNEL (ENAC) INHIBITOR CONJUGATES AND METHODS FOR USE THEREOF” (Lung Therapeutics, Inc., priority 2021, published 2024).

This data set in a line: Pharmacokinetics in blood, lung tissue and BALF of rats after intratracheal administration. It counts as in vivo. Here is the method:
The pharmacokinetic profile of the conjugates of the present invention was determined in blood and lung tissue of rats.
Peptide Conj. 8 (SEQ ID NO: 45) and Conj. 9 (SEQ ID NO: 46) were formulated in 0.9% saline and intratracheally administered to 5-7 week-old rats (Sprague Dawley; male; 224-250 g). The pharmacokinetic profile of the peptide conjugates was then determined in blood and lung tissue.
For subgroup A, whole blood samples were collected from animals at 0.083, 0.25, and 0.5 hours following drug administration and for subgroup B, whole blood samples were collected at 0.75, 1, and 2 hours following drug administration for plasma analysis. Lung and bronchoalveolar lavage fluid (BALF) were collected at 0.5 and 2 hours following drug administration.
Whole blood was collected by tail nick at the predetermined time points and then maximal volume by cardiac stick for the final time point. The plasma was spun and collected within 30 minutes of collection. Upon euthanasia of the animal, a necropsy was performed and lungs harvested and weighed for analysis. After weighing the lungs, BALF was collected with 0.5 mL of 0.9% saline. The lungs were then reweighed after BALF collection. Lung, BALF, and plasma samples were frozen until analysis.
Frozen lung tissue was homogenized using a Precellys Evolution tabletop homogenizer (3×6500 rpm) with 4× dilution using normal rat plasma. 50 μL aliquots of homogenized lung tissue was then transferred into a 96 well plate for extraction with methanol. Harvested BALF was transferred in 25 μL aliquots into a 96 well plate and diluted with 25 μL of rat plasma before extraction with methanol. Plasma samples were transferred in 50 μL aliquots into a 96 well plate for extraction with methanol.
Standards were prepared by producing a working stock solution of Conj. 8 and Conj. 9 at 1 mg/mL. The Conj. 8 assay was performed using Conj. 9 as an internal standard at 1000 ng/mL. The Conj. 9 assay was performed using Conj. 8 as an internal standard at 1000 ng/mL.
Extraction was performed by direct precipitation with 3 volumes (150 μL) of methanol containing 1000 ng/ml of Conj. 8 and Conj. 9 as an internal standard. The plate was vortexed, followed by centrifugation (10 minutes at 4° C. and 2500 g) and dried down under heated nitrogen. Reconstitution was in 100 μL of initial mobile phase A (0.1% TFA: 0.1% FA in water) with 5% of mobile phase B (CAN, 0.1% TFA: 0.1% FA), before placing in an autosampler.
Plasma, lung, and BALF samples were analyzed for Conj. 8 and Conj. 9 by liquid chromatography with tandem mass spectrometry (LC/MS/MS) (API 4000; Kinetex® 2.6 μm C18 Column 50×2.1 mm; column temp.=50° C.; mobile phase A-0.1% TFA: 0.1% FA in water; mobile phase B-ACN, 0.1% TFA: 0.1% FA; flow rate-0.25 mL/min). Pharmacokinetic parameters were derived using sparse sampling noncompartmental analysis methods of Phoenix WinNonLin® version 8.0 (Certara USA, Inc.).
Tmax, the time after dosing at which the maximum concentration was observed; Cmax, the maximum observed concentration measured after dosing; AUClast, the area under the concentration versus time curve from the start of dose administration to the last observed quantifiable concentration calculated using the log/linear trapezoidal method; and MRTlast, mean residence time as defined by AUMClast/AUClast.

Setting [1] is: male, Sprague Dawley, bronchoalveolar lavage fluid (BALF), other: intratracheal; BALF; rat, IT, 5 mg/kg.
Where [2] appears, read: male, Sprague Dawley, lung tissue, other: intratracheal; Lungs; rat, IT, 5 mg/kg.
[3] abbreviates: male, Sprague Dawley, lung, other: intratracheal; Lungs; rat, IT, 5 mg/kg.
Setting [4] is: male, Sprague Dawley, other: intratracheal; BALF; rat, IT, 5 mg/kg.
Setting [5] is: male, Sprague Dawley, other: intratracheal; Plasma; rat, IT, 5 mg/kg.

Where two headings read alike, the source gives them in different places.

In general, MRT last refers to the average time that molecules of a dose stay in the body. As a reminder, the AUC(0-t) is exposure summed from dosing to a finite time, without extrapolation to infinity. Read a high AUC(0-t) as high exposure. Usually Tmax stands for the time at which the peak concentration occurs. For `CC(=O)N[C@@H](Cc1cn(CCCCNC(N)=NC(=O)c2nc(Cl)c(N)nc2N)nn1)C(=O)NCCCCCC(=O)N[C@@H](C)C(=O)N[C@@H](CO)C(=O)N[C@@H](Cc1c[nH]cn1)C(=O)N[C@@H](CC(C)C)C(=O)N[C@@H](CCCNC(=N)N)C(=O)N[C@@H](CCCCN)C(=O)N[C@@H](CC(C)C)C(=O)N[C@@H](CCCNC(=N)N)C(=O)N[C@@H](CCCCN)C(=O)N[C@@H](CCCNC(=N)N)C(=O)N[C@@H](CC(C)C)C(=O)N[C@@H](CC(C)C)C(N)=O` [Conjugate 8], the “plasma concentration (limit of quantitation)” value (all plasma samples; rat, IT, 5 mg/kg) is on record as under 25 ng/mL. The molecule further yielded an MRT last under setting [1] of 75.6 min and an MRT last under setting [2] of 69.6 min. Moreover, for the setting “male, Sprague Dawley, bronchoalveolar lavage fluid (BALF); 0.5 h; rat, IT, 5 mg/kg; read-out: BALF concentration”, the level at 0.5 h worked out at 2910 ng/mL. For the same molecule, under “male, Sprague Dawley, bronchoalveolar lavage fluid (BALF); 2 h; rat, IT, 5 mg/kg; read-out: BALF concentration”, the level at 2 h came out at 3990 ng/mL. The AUC(0-t) amounted to 22500 ng·h/mL under setting [3] and 5910 ng·h/mL under setting [4]. For the same molecule, the Tmax runs as follows: under setting [3], 120 min; under setting [4], 120 min. In addition, the Cmax by setting is: (male, Sprague Dawley, rat, BALF, other: intratracheal, 5 mg/kg, BALF, IT, read-out: Cmax) 3990 ng/mL; (male, Sprague Dawley, rat, lung, other: intratracheal, 5 mg/kg, Lungs, IT, read-out: Cmax) 13200 ng/mL; (male, Sprague Dawley, rat, lung, other: intratracheal, 5 mg/kg, at both 0.5 h and 2 h, IT, read-out: approximate mean Cmax concentration in lung tissues) about 13000 ng/mL.

With `CC(=O)N[C@@H](Cc1cn(CCCCNC(N)=NC(=O)c2nc(Cl)c(N)nc2N)nn1)C(=O)NCCCCCC(=O)N[C@H](C(=O)N[C@@H](CO)C(=O)N[C@@H](CCCCN)C(=O)N[C@@H](CCCNC(=N)N)C(=O)N[C@@H](CCCNC(=N)N)C(N)=O)C(C)C` [Conjugate 9, Ac-(AmilCC2-Pgy)-Ahx-VSKRR-NH2], the MRT last was 39.8 min under setting [1], 55.9 min under setting [2] and 29.5 min under setting [5]. Further, the Tmax runs as follows: (male, Sprague Dawley, inhaled or intranasal; Plasma; rat, IT, 5 mg/kg) 30 min; under setting [3], 30 min; under setting [4], 30 min. In addition, the AUC(0-t) came to 362 ng·h/mL under setting [3], 2380 ng·h/mL under setting [4] and 293 ng·h/mL under setting [5]. For the same molecule, the Cmax by setting is: (male, Sprague Dawley, lung, other: intratracheal; Lungs; rat, IT, 5 mg/kg; read-out: Cmax) 352 ng/mL; (male, Sprague Dawley, other: intratracheal; BALF; rat, IT, 5 mg/kg; read-out: Cmax) 4290 ng/mL; (male, Sprague Dawley, other: intratracheal; Plasma; rat, IT, 5 mg/kg; read-out: Cmax) 2290 ng/mL.
